Assay results from publication PMC7529893, “Structural basis for substrate recognition and chemical inhibition of oncogenic MAGE ubiquitin ligases” (Nature Communications, 2020).
Values joined by “and” are separate entries in the source; they are usually repeats but may differ in a detail not shown here. Equal values may be shown once. Square brackets hold non-standard residues; d marks the D form. Ends that are not written are not given here. Peptide text beside a SMILES is read from it. Phe(4-CN) = N#Cc1ccc(C[C@H](N)C(=O)O)cc1; Phe(3-Me) = Cc1cccc(C[C@H](N)C(=O)O)c1

Columns and labels:
[1] = target: T1, GST-MAGE-A11 MHD (Homo sapiens, UniProt P43364); test: TR-FRET competition assay of PCF11 peptides against GST-MAGE-A11 MHD / FAM-PCF11_4; details: Fig. 1c, panel of eight PCF11 peptides; read-out: IC50, binding of PCF11 peptide to GST-MAGE-A11 by TR-FRET
T1 construct: GST-MAGE-A11 MHD (human MAGE-A11 MHD amino acid 218-429); made in house; host or cells: E. coli BL21(DE3)
T1 sequence (P43364 218-429): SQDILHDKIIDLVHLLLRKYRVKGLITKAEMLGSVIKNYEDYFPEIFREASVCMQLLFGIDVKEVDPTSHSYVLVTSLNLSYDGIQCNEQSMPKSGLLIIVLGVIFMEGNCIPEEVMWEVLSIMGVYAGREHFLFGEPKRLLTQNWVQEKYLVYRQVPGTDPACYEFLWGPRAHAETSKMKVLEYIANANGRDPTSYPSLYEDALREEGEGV
Protocol: The TR-FRET assay buffer with a formula of 50 mM Tris pH 7.5, 20 mM MgCl2, 0.1 mg/ml BSA and 1 mM DTT was freshly prepared before each experiment. All TR-FRET assays were performed in black 384-well plates with 20 µl/well assay volume in the TR-FRET assay buffer at room temperature (~25 °C). All peptides or compounds were solubilized in DMSO. To test the competitive activity of peptides or compounds against the interaction between GST-MAGE-A11 MHD and FAM-PCF11_4 peptide, 10 µl/well peptide or compound at specified concentration was dispensed into a black 384-well low volume plate, followed by 5 µl/well FAM-PCF11_4 (800 nM), 5 µl/well Tb-anti-GST (20 nM), and GST-MAGE-A11 MHD (20 nM). The assay components in each well was then mixed by shaking the plate on an IKA MTS 2/4 digital microtiter plate shaker (IKA Works; Wilmington, NC, USA) for 1 min. The plate was further centrifuged in an Eppendorf 5810 centrifuge with an A-4-62 swing-bucket rotor (Eppendorf AG, Hamburg, Germany) at 201 g for 30 s. The plate was then incubated for 90 min with a lid to avoid light exposure to the assay components. After incubation, the fluorescent emission signals at 520 nm and 490 nm channels of individual wells were measured with a PHERAstar FS plate reader (BMG Labtech; Durham, NC, USA) by using a 340 nm excitation filter, 100 µs delay time, and 200 µs integration time. The TR-FRET fluorescence emission ratio (TR-FRET signal) for each well was presented as 10,000 × 520 nm/490 nm, which was used directly for curve fitting, or further converted to %Inhibition based on the respective positive and negative controls. The graphic software GraphPad Prism 4.81 (GraphPad Software; La Jolla, CA, USA) was used to generate curves and derive IC50 values of tested peptides or compounds, if applicable.
TR-FRET inhibitory activity characterization of a panel of PCF11 peptides against the interaction between GST-MAGE-A11 MHD and FAM-PCF11_4 was performed as follows. In a 20-µl/well assay volume, dilutions of PCF11_1 to PCF11_8 peptides (concentrations ranged from 3.1 nM to 100 µM for peptides PCF11_4, PCF11_5, PCF11_6 and PCF11_8 in a 1-to-2 dilution pattern for 16 concentration levels, and ranged from 48.9 nM to 100 µM for peptides of PCF11_1, PCF11_2, PCF11_3, and PCF11_7 in a 1-to-2 dilution pattern for 12 concentration levels), 200 nM FAM-PCF11_4, 5 nM Tb-anti-GST and 5 nM GST-MAGE-A11 were mixed together and incubated for 90 min before the TR-FRET signal for each well was measured. The final DMSO concentration was 1.1% (v/v). […] The signal of each peptide-treated well (Signalpeptide) was normalized to the positive and negative controls to derive %inhibition of the peptide at a specific concentration with Eq. (1). Where applicable, the %Inhibition data were fit into a Sigmoidal dose response equation to derive IC50 values.1 %Inhibition=100%−100%×(Signalpeptide−SignalDMSOwithoutGST-MAGEA11)/SignalDMSO−SignalDMSOwithoutGST-MAGEA11.

[2] = target: T2, GST-MAGE-A11 MHD (human MAGE-A11 MHD amino acid 218-429) (human, UniProt P43364 218-429); test: FRET
T2 chain: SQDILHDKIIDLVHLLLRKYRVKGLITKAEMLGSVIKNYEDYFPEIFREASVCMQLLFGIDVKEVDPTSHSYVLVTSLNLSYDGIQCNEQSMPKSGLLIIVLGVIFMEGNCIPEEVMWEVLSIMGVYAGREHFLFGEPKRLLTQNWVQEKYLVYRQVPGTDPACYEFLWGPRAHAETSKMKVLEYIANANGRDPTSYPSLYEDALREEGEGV

[3] = target: T2, GST-MAGE-A11 MHD (human MAGE-A11 MHD …); test: FRET
[4] = target: T3, GST-MAGE-A11 MHD (human MAGE-A11 MHD amino acid 218-429) (human, UniProt P43364 218-429); test: AlphaScreen or HTRF; TR-FRET competition: unlabelled peptide titrated against 200 nM FAM-PCF11_4, 5 nM Tb-anti-GST and 5 nM GST-MAGE-A11 MHD; 50 mM Tris pH 7.5, 20 mM MgCl2, 0.1 mg/ml BSA, 1 mM DTT; room temperature (~25 °C), 90 min; details: both partners purified
T3 construct: also called recombinant GST-MAGE-A11; source: E. coli BL21(DE3), purified (GSTrap, Resource Q)
T3 sequence (looked up): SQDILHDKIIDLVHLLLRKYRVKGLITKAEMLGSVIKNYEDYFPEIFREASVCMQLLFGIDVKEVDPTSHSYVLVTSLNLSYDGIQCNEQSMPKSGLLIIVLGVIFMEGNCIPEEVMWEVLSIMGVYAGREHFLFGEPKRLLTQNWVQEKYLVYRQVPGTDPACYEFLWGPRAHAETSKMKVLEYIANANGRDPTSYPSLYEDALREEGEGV

## CC[C@H](C)[C@H](NC(=O)[C@H](CCC(N)=O)NC(=O)[C@H](Cc1c[nH]cn1)NC(=O)[C@@H](N)C(C)C)C(=O)N[C@@H](CCCNC(=N)N)C(=O)N[C@@H](CCC(N)=O)C(=O)N[C@@H](CC(C)C)C(=O)N[C@@H](Cc1ccccc1)C(=O)N[C@@H](CCC(N)=O)C(=O)N[C@@H](Cc1ccc(O)cc1)C(=O)N[C@@H](CCC(N)=O)C(=O)N[C@@H](CCC(=O)O)C(=O)NCC(=O)N[C@H](C(=O)N[C@@H](CCCNC(=N)N)C(=O)N[C@@H](CCC(=O)O)C(=O)N[C@@H](CCC(=O)O)C(=O)N[C@@H](CCC(N)=O)C(=O)N[C@@H](CCCNC(=N)N)C(=O)N[C@@H](CO)C(=O)O)C(C)C [PCF11_8] (H-VHQIRQLFQYQEGVREEQRS-OH; N-terminus assumed)
[1]
  IC50: > 50000 nM

## CC[C@H](C)[C@H](NC(=O)[C@H](CCC(=O)O)NC(=O)CNC(=O)[C@H](CO)NC(=O)[C@H](C)NC(=O)[C@H](CC(C)C)NC(=O)[C@H](CCCNC(=N)N)NC(=O)[C@H](CCC(=O)O)NC(=O)[C@H](CO)NC(=O)[C@@H](NC(=O)[C@H](CCCCN)NC(=O)[C@H](CCC(N)=O)NC(=O)[C@H](CC(C)C)NC(=O)[C@@H](N)CC(C)C)[C@@H](C)O)C(=O)N[C@H](C(=O)O)[C@@H](C)O [PCF11_2] (H-LLQKTSERLASGEIT-OH; N-terminus assumed)
[1]
  IC50: > 50000 nM

## CC[C@H](C)[C@H](NC(=O)[C@H](CCC(N)=O)NC(=O)[C@H](Cc1c[nH]cn1)NC(=O)[C@@H](N)C(C)C)C(=O)N[C@@H](CCCNC(=N)N)C(=O)N[C@@H](CCC(N)=O)C(=O)N[C@@H](CC(C)C)C(=O)N[C@@H](Cc1ccccc1)C(=O)N[C@@H](CCC(N)=O)C(=O)N[C@@H](Cc1ccc(O)cc1)C(=O)N[C@@H](CCC(N)=O)C(=O)N[C@@H](CCC(=O)O)C(=O)NCC(=O)N[C@H](C(=O)N[C@@H](CCCNC(=N)N)C(=O)O)C(C)C [PCF11_7] (H-VHQIRQLFQYQEGVR-OH; N-terminus assumed)
[1]
  IC50: > 50000 nM

## CC(C)C[C@H](NC(=O)[C@H](CC(C)C)NC(=O)[C@H](CCC(=O)O)NC(=O)[C@H](CCCNC(=N)N)NC(=O)[C@H](CCCCN)NC(=O)[C@H](CO)NC(=O)[C@H](C)NC(=O)[C@H](CC(C)C)NC(=O)[C@@H](NC(=O)[C@H](CC(C)C)NC(=O)[C@H](CCC(=O)O)NC(=O)[C@H](CCCCN)NC(=O)[C@@H]1CCCN1)[C@@H](C)O)C(=O)N[C@@H](CCC(N)=O)C(=O)N[C@@H](CCCCN)C(=O)O [PCF11_1] (H-PKELTLASKRELLQK-OH; N-terminus assumed)
[1]
  IC50: > 50000 nM

## FLVVVHQIAQLFQYQ [PCF11_6 peptide R690A]
[2]
  IC50: 15600 nM

B1: PCF11 peptide (FLVVVHQIRQLFQ) containing phenylalanine at position 12 (peptide)
peptide: FLVVVHQIRQLFQ
notes: PCF11 degron, human; position +1 is F682 and position +12 is F693; also called model 13 amino acid PCF11 peptide degron; natural PCF11 degron peptide; source: synthetic peptide
[3]
  IC50: 60.4 nM
[4]
  binding result: binds

## FLVVVHQIRQAFQYQ [PCF11_6 peptide L692A]
[2]
  IC50: 540 nM

## FLVVVHQIRQLAQYQ [PCF11_6 peptide F693A]
[2]
  IC50: 2140 nM

## FLVVVHQARQLFQYQ [PCF11_6 peptide I689A]
[2]
  IC50: 1020 nM

B2: PCF11 peptide (FLVVVHQIRQLF*Q) containing 4-cyano-phenylalanine at position 12 (peptide)
peptide: FLVVVHQIRQL[Phe(4-CN)]Q
notes: PCF11 degron, human; the phenylalanine at position 12 (F693) is 4-cyano-phenylalanine; also called 4-cyano-phenylalanine variant; source: synthetic peptide
[4]
  IC50: 663 nM

B3: PCF11_6 peptide (peptide)
chain: FLVVVHQIRQLFQYQ
modifications: exact ends are only in Fig. 1b; 682-696 is inferred from 'three overlapping peptides centered on PCF11 amino acids 682-696' (the later 13-residue model peptide is 682-694)
[2]
  IC50: 70 nM and 65 nM

B4: PCF11 peptide (FLVVVHQIRQLF*Q) containing 3-methyl-phenylalanine at position 12 (peptide)
peptide: FLVVVHQIRQL[Phe(3-Me)]Q
notes: PCF11 degron, human; the phenylalanine at position 12 (F693) is 3-methyl-phenylalanine; also called 3-methyl-phenylalanine variant; source: synthetic peptide
[4]
  IC50: 1.7 nM

## ALVVVHQIRQLFQYQ (same inferred limits as m7) [PCF11_6 peptide F682A]
[2]
  IC50: 570 nM
